# Patent US20220112308A1 (Genentech, published 2022)
# Residue numbers refer to the chain shown, from its start.
# B1: anti-KRas antibody 3A12 (antibody, V domains shown)
# VH: EVQLVESGGGLVQPGGSLRLSCAASGFTFSSYSMNWVRQAPGKGLEWVSYISSSSSTIYYADSVKGRFTISRDNAKNSLYLQMNSLRAEDTAVYYCARGKGIVGWGFFGMDVWGQGTLVTVSS
# VL: SVLTQPPSVSAAPGQKVTISCSGSSSNIGNNYVSWYQQLPGTAPKLLIYDNNKRPSGIPDRFSGSKSGTSATLGITGLQTGDEADYYCGTWDNSLSVWVFGGGTKLTVL
# notes: also called Class II anti-KRas antibody
# B2: anti-KRas antibody 2H11 (antibody, human IgG1, V domains shown)
# VH: EVQLQESGPGLVKPPGTLSLTCAVSGGSISSSNWWSWVRQPPGKGLEWIGEIYHSGSTNYNPSLKSRVTISVDKSKNQFSLKLSSVTAADTAVYYCARGSSSWYDLGPFDYWGQGTLVTVSS
# VL: not shown
# notes: also called Class II anti-KRas antibody; CLAMP
# B3: anti-KRas antibody 1E5 (antibody, V domains shown)
# VH: EVQLVESGGGLVKPGGSLRLSCAASGFTFSSYSMNWVRQAPGKGLEWVSSISSSSSYIYYADSVKGRFTISRDNAKNSLYLQMNSLRAEDTAVYYCARTNNYGYRYFDYWGQGTLVTVSS
# VL: LTQDPAVSVALGQTVRITCQGDSLRSYYASWYQQKPGQAPVLVIYGKNNRPSGIPDRFSGSSSGNTASLTITGAQAEDEADYYCNSRDSSGNHWVFGGGTKLTVL
# notes: as for B1
# B4: anti-KRas antibody 2A3 (antibody, human IgG1, V domains shown)
# VH: B3 VH with T99A, N100T, N101S, Y102S, R105Y
# VL: ELTQDPAVSVALGQTVRITCQGDSLRSYYASWYQQKPGQAPVLVIYGKNNRPSGIPDRFSGSSSGNTASLTITGAQAEDEADYYCNSRDSTDNHLWVFGGGTKLTVL
# notes: as for B1
# B5: anti-KRas antibody 1A5 (antibody, human IgG1, V domains shown)
# VH: EVQLVESGGGLVQPGGSLRLSCAASGFTFSSYSMNWVRQAPGKGLEWVSYISSSSSTIYYADSVKGRFTISRDNAKNSLYLQMNSLRAEDTAVYYCARGFYVRNWFDPWGQGTLVTVSS
# VL: AIQMTQSPSSLSASVGDRVTITCRASQGIRNDLGWYQQKPGKAPKLLIYAASSLQSGVPSRFSGSGSGTDFTLTISSLQPEDFATYYCLQDHDYPLTFGQGTKVEIK
# notes: also called Class I anti-KRas antibody; 1A5-488 (labelled form in FACS)
# B6: anti-KRas antibody 1B7 (antibody, human IgG1, V domains shown)
# VH: EVQLVQSGAEVKKPGSSVKVSCKASGGTFSSYAISWVRQAPGQGLEWMGGIIPIFGTANYAQKFQGRVTITADESTSTAYMELSSLRSEDTAVYYCARYYDFWSGYPGGLFDVWGQGTLVTVSS
# VL: B1 VL with N93S, S96T, V97G
# notes: also called Class I anti-KRas antibody
# B7: anti-KRas antibody 1A6 (antibody, human IgG1, V domains shown)
# VH: B6 VH
# VL: B1 VL with N93S, S96T, V97G, W98Y
# notes: as for B6
# B8: anti-KRas antibody 2C1 (antibody, V domains shown)
# VH: EVQLVESGGGLVKPGGSLRLSCAASGFTFSSYSMNWVRQAPGKGLEWVSSISSSSSYIYYADSVKGRFTISRDNAKNSLYLQMNSLRAEDTAVYYCARAFYSYMDVWGQGTLVTVSS
# VL: not shown
# notes: as for B6
# B9: anti-KRas antibody 1F4 (antibody, human IgG1, V domains shown)
# VH: EVQLVESGGGLVQPGGSLRLSCAASGFTFSSYSMNWVRQAPGKGLEWVSYISSSSSTIYYADSVKGRFTISRDNAKNSLYLQMNSLRAEDTAVYYCARSFGPYAFDVWGQGTLVTVSS
# VL: not shown
# B10: anti-KRas antibody 1D6 (antibody, human IgG1, V domains shown)
# VH: EVQLVESGGGLVQPGGSLRLSCAASGFTFSSYAMSWVRQAPGKGLEWVSAISSSGSSTYYADSVKGRFTISRDNSKNTLYLQMNSLRAEDTAVYYCARDQGGYGYPGESWFDYWGQGTLVTVSS
# VL: B5 VL with A1D, R30S, N31S, D32Y, G34A, L89Q, D91Y, H92Y, D93S, L96F
# notes: as for B6
# Molecular target: T1, KRas^WT-GDP (recombinant) (human, UniProt P01116-2 2-169, GDP bound)
# Assay: SPR, IgG captured by anti-human IgG1 Fc, KRas in solution, 25 C, 1:1 Langmuir fit
# Experimental: (§1) SPR experiments were carried out on the Mass-1 (Bruker) at 25° C. using HBS-P+(GE Healthcare) running buffer. 1 μg/mL of the anti-KRas antibodies were captured using an anti-HuIgG1 Fc capture kit (GE Healthcare). […] KRas^G12C-GDP was titrated using a dilution series from 5000-0 nM. KRas^G12C-GDP+ARS1620 was titrated using a dilution series from 1000-0 nM. KRas^G12C-GDP+ARS853 was titrated using a dilution series from 200-0 nM. KRasWT-GDP was titrated using a dilution series from 2000-0 nM. Sensorgrams were fit to a 1:1 Langmuir model to identify kinetic parameters.
row,Kd [nM],Binder
1,24,B1
2,42,B2
3,411,B3
4,71,B4
5,159,B5

# Molecular target: KRas^WT-GTP (recombinant) (human, UniProt P01116-2 2-169, GTP bound as printed in Table 1B)
# Assay: SPR, KRas bound to GTP (Table 1B)
row,Kd [nM],Binder
1,7,B4

# Molecular target: T1, KRas^WT-GDP (recombinant)
# Assay: SPR, IgG captured, KRas as analyte
# Experimental: as §1
row,binding result,Binder
1,no binding (tested: titrated 2000-0 nM),B6
2,no binding (tested: titrated 2000-0 nM),B7
3,no binding (tested: titrated 2000-0 nM),B8
4,no binding (tested: titrated 2000-0 nM),B9
5,no binding (tested: titrated 2000-0 nM),B10
